What all share (test): purified protein, by the assay type
Holding throughout (settings): other: Man5B 3 nM, oligosaccharide 30 μM, citrate buffer 50 mM, pH 5.5, 5 min, triplicate

Substrate in data set [1]: OC[C@H]1O[C@@H](O[C@H]2[C@H](O)[C@H](O)[C@H](O[C@H]3[C@H](O)[C@H](O)[C@H](O[C@H]4[C@H](O)[C@H](O)[C@H](O[C@H]5[C@H](O)[C@H](O)[C@H](O[C@H]6[C@H](O)[C@H](O)C(O)O[C@@H]6CO)O[C@@H]5CO)O[C@@H]4CO)O[C@@H]3CO)O[C@@H]2CO)[C@@H](O)[C@@H](O)[C@@H]1O
Substrate in data set [2]: OC[C@H]1O[C@@H](O[C@H]2[C@H](O)[C@H](O)[C@H](O[C@H]3[C@H](O)[C@H](O)C(O)O[C@@H]3CO)O[C@@H]2CO)[C@@H](O)[C@@H](O)[C@@H]1O
Substrate in data set [3]: OC[C@H]1O[C@@H](O[C@H]2[C@H](O)[C@@H](O)[C@H](O[C@H]3[C@H](O)[C@@H](O)[C@H](O[C@H]4[C@H](O)[C@@H](O)C(O)O[C@@H]4CO)O[C@@H]3CO)O[C@@H]2CO)[C@H](O)[C@@H](O)[C@@H]1O
Substrate in data set [4]: OC[C@H]1O[C@@H](O[C@H]2[C@H](O)[C@@H](O)[C@H](O[C@H]3[C@H](O)[C@@H](O)C(O)O[C@@H]3CO)O[C@@H]2CO)[C@H](O)[C@@H](O)[C@@H]1O
Substrate in data set [5]: OC[C@H]1O[C@@H](O[C@H]2[C@H](O)[C@H](O)[C@H](O[C@H]3[C@H](O)[C@H](O)[C@H](O[C@H]4[C@H](O)[C@H](O)C(O)O[C@@H]4CO)O[C@@H]3CO)O[C@@H]2CO)[C@@H](O)[C@@H](O)[C@@H]1O
Substrate in data set [6]: OC[C@H]1O[C@@H](O[C@H]2[C@H](O)[C@@H](O)[C@H](O[C@H]3[C@H](O)[C@@H](O)[C@H](O[C@H]4[C@H](O)[C@@H](O)[C@H](O[C@H]5[C@H](O)[C@@H](O)[C@H](O[C@H]6[C@H](O)[C@@H](O)C(O)O[C@@H]6CO)O[C@@H]5CO)O[C@@H]4CO)O[C@@H]3CO)O[C@@H]2CO)[C@H](O)[C@@H](O)[C@@H]1O

B1: Caldanaerobius polysaccharolyticus endo-β-mannanase Man5B, wild type, SEQ ID NO: 31 (Caldanaerobius polysaccharolyticus) (protein)
chain: MKKYGFNFQWMYVWEEGREPEPPDKKALDFLAETGFNFVRIPVDYRFWTRNFDYFNPDKKVFEYIDLYLRECSARNIHMCLNLHRAPGYCINRNDIERDNLWLDKRAQDGFVYQWELFAKRYKGVSSKFLSFDLVNEPPNIGQYGLTRENHASLIIRTVEAIRKIDPDREIVIDGLGGGNIAMPELAHLGVVHSGRGYQPMALTHYQASWWDGHKGLPEPYYPDLLWQGKVWNKDTLREYYKPWRDLQQKGVNVHIGEFGCFNKTSNDVAIRWFEDVLSLYKEFEWGYSLWNFKGPFGIVEHGRPGAKYEYYRGFKVDRELLDLLVENRV
On to B1, for which the kcat/Km (usually the turnover number divided by the Michaelis constant) in data set [1] is “(2.7 ± 0.7) × 10^2 mM^−1 s^−1”; in data set [2] it was 270 ± 50 M⁻¹ s⁻¹; in data set [3] it was 1400 ± 200 M⁻¹ s⁻¹; in data set [4] it was 1000 ± 70 M⁻¹ s⁻¹; in data set [5] it was 63000 ± 6000 M⁻¹ s⁻¹; in data set [6], 43000 ± 3000 M⁻¹ s⁻¹.

The record behind these values is US8357518B2, “Thermostable enzymes for the hydrolysis of mannan-containing polysaccharides” (The Board of Trustees of the University of Illinois, priority 2010, dated 2013).
